In patent US20210403527A1 (published 2021):

T1: NY-ESO-1 peptide on HLA-A*02:01 (human)
T1 peptide: SLLMWITQC

B1: TCR188 (TCR, V domains shown)
Valpha: DAKTTQPNSMESNEEEPVHLPCNHSTISGTDYIHWYRQLPSQGPEYVIHGLTSNVNNRMASLAIAEDRKSSTLILHRATLRDAAVYYCILNTGTASKLTFGTGTRLQVTL
Vbeta: GAVVSQHPSWVICKSGTSVKIECRSLDFQATTMFWYRQFPKQSLMLMATSNEGSKATYEQGVEKDKFLINHASLTLSTLTVTSAHPEDSSFYICSAKEGTEAFFGQGTRLTVV
B2: TCR018 (TCR, V domains shown)
Valpha: AQTVTQSQPEMSVQEAETVTLSCTYDTSESDYYLFWYKQPPSRQMILVIRQEAYKQQNATENRFSVNFQKAAKSFSLKISDSQLGDAAMYFCAYRSANSGYALNFGKGTSLLVTP
Vbeta: ETGVTQTPRHLVMGMTNKKSLKCEQHLGHNAMYWYKQSAKKPLELMFVYNFKEQTENNSVPSRFSPECPNSSHLFLHLHTLQPEDSALYLCASSQAHYTEAFFGQGTRLTVV
B3: TCR090 (TCR, V domains shown)
Valpha: GENVEQHPSTLSVQEGDSSVIKCTYSDSASNYFPWYKQELGKRPQLIIDIRSNVGEKKDQRIAVTLNKTAKHFSLHITETQPEDSAVYFCAATGYGQNFVFGPGTRLSVLP
Vbeta: EAQVTQNPRYLITVTGKKLTVTCSQNMNHEYMSWYRQDPGLGLRQIYYSMNVEVTDKGDVPEGYKVSRKEKRNFPLILESPSPNQTSLYFCASSLRGPYGYTFGSGTRLTVV
B4: TCR001 (TCR, V domains shown)
Valpha: DAKTTQPNSMESNEEEPVHLPCNHSTISGTDYIHWYRQLPSQGPEYVIHGLTSNVNNRMASLAIAEDRKSSTLILHRATLRDAAVYYCILRPDSWGKFQFGAGTQVVVTP
Vbeta: NAGVTQTPKFRILKIGQSMTLQCAQDMNHNYMYWYRQDPGMGLKLIYYSVGAGITDKGEVPNGYNVSRSTTEYFPLRLELAAPSQTSVYFCASSYSGGSPLHFGNGTRLTVT
B5: TCR167 (TCR, V domains shown)
Valpha: DAKTTQPNSMESNEEEPVHLPCNHSTISGTDYIHWYRQLPSQGPEYVIHGLTSNVNNRMASLAIAEDRKSSTLILHRATLRDAAVYYCILRPDSWGKFQFGAGTQVVVTP
Vbeta: GAVVSQHPSWVICKSGTCVKIECRSLDFQATTMFWYRQFPKQSLMLMATSNEGSKATYEQGVEKDKFLINHASLTLSTLTVAGAHPEDSSFYICSAMTVMNTEAFFGQGTRLTVV
B6: TCR050 (TCR, V domains shown)
Valpha: DAKTTQPNSMESNEEEPVHLPCNHSTISGTDYIHWYRQLPSQGPEYVIHGLTSNVNNRMASLAIAEDRKSSTLILHRATLRDAAVYYCILREGNNDMRFGAGTRLTVKP
Vbeta: NAGVTQTPKFRILKIGQSMTLQCAQDMNHNYMYWYRQDPGMGLKLIYYSVGAGITDKGEVPNGYNVSRSTTEYFPLRLELAAPSQTSVYFCASSWTDNQPQHFGDGTRLSIL
B7: TCR108 (TCR, V domains shown)
Valpha: GENVEQHPSTLSVQEGDSAVIKCTYSDSASNYFPWYKQELGKRPQLIIDIRSNVGEKKDQRIAVTLNKTAKHFSLHITETQPEDSAVYFCAASMKDSSYKLIFGSGTRLLVRP
Vbeta: ETGVTQTPRHLVMGMTNKKSLKCEQHLGHNAMYWYKQSAKKPLELMFVYNFKEQTENNSVPSRFSPECPNSSHLFLHLHTLQPEDSALYLCASSQGPGYTFGSGTRLTVV
B8: TCR317 (TCR, V domains shown)
Valpha: QKEVEQNSGPLSVPEGAIASLNCTYSDRGSQSFFWYRQYSGKSPELIMSIYSNGDKEDGRFTAQLNKASQYVSLLIRDSQPSDSATYLCAVNSSPYKLSFGAGTTVTVRA
Vbeta: ETGVTQTPRHLVMGMTNKKSLKCEQHLGHNAMYWYKQSAKKPLELMFVYNFKEQTENNSVPSRFSPECPNSSHLFLHLHTLQPEDSALYLCASSQGPGYTFGSGTRLTVV
B9: TCR063 (TCR, V domains shown)
Valpha: QKEVEQNSGPLSVPEGAIASLNCTYSDRGSQSFFWYRQYSGKSPELIMSIYSNGDKEDGRFTAQLNKASQYVSLLIRDSQPSDSATYLCAVNILASGGSYIPTFGRGTSLIVHP
Vbeta: ETGVTQTPRHLVMGMTNKKSLKCEQHLGHNAMYWYKQSAKKPLELMFVYNFKEQTENNSVPSRFSPECPNSSHLFLHLHTLQPEDSALYLCASSHGTGYNYGYTFGSGTRLTVV
B10: TCR184 (TCR, V domains shown)
Valpha: DQQVKQNSPSLSVQEGRISILNCDYTNSMFDYFLWYKKYPAEGPTFLISISSIKDKNEDGRFTVFLNKSAKHLSLHIVPSQPGDSAVYFCAARKNYGGSQGNLIFGKGTKLSVKP
Vbeta: DAGVTQSPTHLIKTRGQQVTLRCSPISGHKSVSWYQQVLGQGPQFIFQYYEKEERGRGNFPDRFSARQFPNYSSELNVNALLLGDSALYLCASSLGSYDYTFGSGTRLTVV

Molecular target: T1, NY-ESO-1 peptide on HLA-A*02:01
Assay: multimer staining

Binding result, recognises:
B1
B2
B3
B4
B5
B6
B7
B8
B9
B10
